{"source": "paper PMC10471779", "about": "(2023)", "binders": {"B1": {"name": "D11 anti-Gal-3 monoclonal antibody (hIgG1 format, LALA) (antibody, V domains shown)", "VH": "EVQLVESGGSLVKPGGSLRLSCAASGFTFSNYNMNWVRQAPGKGLEWISSIYGSSRYIYYADFVKGRFTISRDNAKNSLYLQMNSLRAEDTAVYYCVRSSYGGMDVWGRGTLVTVSS", "VL": "QSVLTQPASVSGSPGQSITISCAGTSSDVGGSYNVAWYQQHPGKAPKLMIYYDSYRPSGVSNRFSGSKSGNTASLTISGLQAEDEADYYCSSYTGYSTRVFGGGTKLEIK"}, "B2": {"name": "E07 anti-Gal-3 monoclonal antibody (hIgG1 format, LALA) (antibody, V domains shown)", "VH": "B1 VH with S50N, S100Y", "VL": "B1 VL with S32Y, N34S, A36S, Y55N"}}, "test_in_all_cases": "SPR", "key": {"[1]": {"target": "T1, recombinant rat galectin-3 (rat, UniProt P08699 1-262)", "T1 chain": "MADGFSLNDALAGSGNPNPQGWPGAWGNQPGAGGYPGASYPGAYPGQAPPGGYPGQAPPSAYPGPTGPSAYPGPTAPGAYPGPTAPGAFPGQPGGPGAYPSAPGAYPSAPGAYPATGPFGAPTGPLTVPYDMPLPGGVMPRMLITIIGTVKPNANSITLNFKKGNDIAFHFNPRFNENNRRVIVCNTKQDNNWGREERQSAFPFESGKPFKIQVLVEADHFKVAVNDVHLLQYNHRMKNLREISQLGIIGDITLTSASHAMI"}, "[2]": {"target": "recombinant cynomolgus galectin-3 (cynomolgus)"}, "[3]": {"target": "T2, recombinant mouse galectin-3, full length, His-tagged (mGal-3-FL-His Nter) (mouse, UniProt P16110 1-264)", "T2 chain": "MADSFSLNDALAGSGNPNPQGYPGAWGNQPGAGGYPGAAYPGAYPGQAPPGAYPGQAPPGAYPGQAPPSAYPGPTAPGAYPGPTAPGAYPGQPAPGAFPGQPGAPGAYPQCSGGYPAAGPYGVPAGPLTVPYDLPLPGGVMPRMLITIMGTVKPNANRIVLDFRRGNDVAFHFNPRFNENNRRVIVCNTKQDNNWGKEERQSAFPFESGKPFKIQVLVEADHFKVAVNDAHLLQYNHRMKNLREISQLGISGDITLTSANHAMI"}}, "note": "Positions count from the first letter of the chain named."}
{"binder": "B1", "values": [{"measurement": "Kd", "setting": "[1]", "value": 8.6, "unit": "nM"}, {"measurement": "Kd", "setting": "[2]", "value": 11.4, "unit": "nM"}]}
{"binder": "B2", "values": [{"measurement": "Kd", "setting": "[3]", "value": 4.1, "unit": "nM"}, {"measurement": "Kd", "setting": "[2]", "value": 7.1, "unit": "nM"}]}
